# Measurements from patent US20220089784A1 (University of California, published 2022).
# T1: BoNT/F1 (proteolytic BoNT/F) (Clostridium botulinum, UniProt A7GBG3 1-1278)
# T1 sequence: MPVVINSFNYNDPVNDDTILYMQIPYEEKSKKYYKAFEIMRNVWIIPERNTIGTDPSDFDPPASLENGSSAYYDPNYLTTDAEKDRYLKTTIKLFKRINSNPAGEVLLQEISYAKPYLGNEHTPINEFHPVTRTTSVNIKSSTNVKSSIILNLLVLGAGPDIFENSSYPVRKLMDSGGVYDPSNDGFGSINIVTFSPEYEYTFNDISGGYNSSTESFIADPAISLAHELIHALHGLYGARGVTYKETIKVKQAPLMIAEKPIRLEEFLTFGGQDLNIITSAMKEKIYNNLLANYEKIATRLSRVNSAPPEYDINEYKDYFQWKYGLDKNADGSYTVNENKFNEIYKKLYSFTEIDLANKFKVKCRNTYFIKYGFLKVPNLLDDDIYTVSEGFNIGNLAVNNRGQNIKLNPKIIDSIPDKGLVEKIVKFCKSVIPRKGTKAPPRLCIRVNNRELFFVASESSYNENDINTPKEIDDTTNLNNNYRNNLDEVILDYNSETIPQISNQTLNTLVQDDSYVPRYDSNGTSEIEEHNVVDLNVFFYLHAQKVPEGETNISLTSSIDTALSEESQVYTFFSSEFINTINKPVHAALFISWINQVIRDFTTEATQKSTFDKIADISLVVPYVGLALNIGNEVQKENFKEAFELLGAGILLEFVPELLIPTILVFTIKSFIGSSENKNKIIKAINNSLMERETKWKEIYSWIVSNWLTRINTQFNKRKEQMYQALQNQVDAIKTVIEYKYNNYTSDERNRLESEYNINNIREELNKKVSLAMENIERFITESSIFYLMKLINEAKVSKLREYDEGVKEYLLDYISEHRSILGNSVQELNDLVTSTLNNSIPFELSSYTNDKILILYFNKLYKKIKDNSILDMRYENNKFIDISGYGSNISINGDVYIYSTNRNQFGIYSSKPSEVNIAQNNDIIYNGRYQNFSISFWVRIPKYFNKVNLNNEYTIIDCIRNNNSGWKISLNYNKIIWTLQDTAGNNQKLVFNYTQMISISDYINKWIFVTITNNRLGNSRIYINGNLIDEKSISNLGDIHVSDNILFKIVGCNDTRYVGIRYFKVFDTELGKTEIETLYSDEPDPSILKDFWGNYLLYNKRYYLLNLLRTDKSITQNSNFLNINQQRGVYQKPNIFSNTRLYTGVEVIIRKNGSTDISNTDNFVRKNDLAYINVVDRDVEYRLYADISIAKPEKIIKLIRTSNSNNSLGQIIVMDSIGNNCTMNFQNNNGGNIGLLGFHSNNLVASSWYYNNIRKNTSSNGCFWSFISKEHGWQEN
# T2: BoNT/C1 holotoxin (Clostridium botulinum, UniProt P18640 2-1291)
# T2 sequence: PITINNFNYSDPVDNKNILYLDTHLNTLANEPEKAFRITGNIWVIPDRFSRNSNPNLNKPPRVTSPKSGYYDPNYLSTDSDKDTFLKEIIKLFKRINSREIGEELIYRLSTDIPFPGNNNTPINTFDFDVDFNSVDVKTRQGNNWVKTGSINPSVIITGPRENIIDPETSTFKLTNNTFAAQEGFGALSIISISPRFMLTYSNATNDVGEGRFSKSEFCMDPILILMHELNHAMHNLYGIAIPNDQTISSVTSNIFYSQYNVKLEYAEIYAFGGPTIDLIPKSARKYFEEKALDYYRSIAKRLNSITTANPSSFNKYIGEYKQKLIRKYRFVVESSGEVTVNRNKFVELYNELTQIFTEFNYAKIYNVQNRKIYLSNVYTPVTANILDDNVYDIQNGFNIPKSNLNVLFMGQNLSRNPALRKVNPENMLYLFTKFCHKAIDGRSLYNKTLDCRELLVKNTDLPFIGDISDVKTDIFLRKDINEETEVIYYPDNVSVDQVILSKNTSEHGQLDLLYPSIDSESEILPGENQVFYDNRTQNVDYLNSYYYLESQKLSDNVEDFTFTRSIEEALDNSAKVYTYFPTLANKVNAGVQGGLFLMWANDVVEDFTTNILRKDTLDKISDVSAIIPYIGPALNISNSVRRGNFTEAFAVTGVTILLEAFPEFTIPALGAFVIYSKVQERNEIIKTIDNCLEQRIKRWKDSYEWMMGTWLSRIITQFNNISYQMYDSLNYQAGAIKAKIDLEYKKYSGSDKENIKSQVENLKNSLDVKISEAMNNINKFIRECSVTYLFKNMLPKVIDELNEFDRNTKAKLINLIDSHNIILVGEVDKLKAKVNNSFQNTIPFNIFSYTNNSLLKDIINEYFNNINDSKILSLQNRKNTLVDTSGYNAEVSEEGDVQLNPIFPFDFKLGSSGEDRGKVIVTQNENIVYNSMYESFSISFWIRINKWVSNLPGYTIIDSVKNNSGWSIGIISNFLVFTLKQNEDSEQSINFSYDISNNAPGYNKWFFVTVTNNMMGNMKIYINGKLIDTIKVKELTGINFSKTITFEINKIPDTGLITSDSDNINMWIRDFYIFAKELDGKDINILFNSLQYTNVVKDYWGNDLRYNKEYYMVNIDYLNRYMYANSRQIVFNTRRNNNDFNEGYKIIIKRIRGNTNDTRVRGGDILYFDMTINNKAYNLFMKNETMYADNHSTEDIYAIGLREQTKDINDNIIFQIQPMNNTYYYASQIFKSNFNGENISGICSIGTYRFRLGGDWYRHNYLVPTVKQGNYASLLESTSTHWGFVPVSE
# T3: BoNT/D (Clostridium botulinum, UniProt P19321 2-1276)
# T3 sequence: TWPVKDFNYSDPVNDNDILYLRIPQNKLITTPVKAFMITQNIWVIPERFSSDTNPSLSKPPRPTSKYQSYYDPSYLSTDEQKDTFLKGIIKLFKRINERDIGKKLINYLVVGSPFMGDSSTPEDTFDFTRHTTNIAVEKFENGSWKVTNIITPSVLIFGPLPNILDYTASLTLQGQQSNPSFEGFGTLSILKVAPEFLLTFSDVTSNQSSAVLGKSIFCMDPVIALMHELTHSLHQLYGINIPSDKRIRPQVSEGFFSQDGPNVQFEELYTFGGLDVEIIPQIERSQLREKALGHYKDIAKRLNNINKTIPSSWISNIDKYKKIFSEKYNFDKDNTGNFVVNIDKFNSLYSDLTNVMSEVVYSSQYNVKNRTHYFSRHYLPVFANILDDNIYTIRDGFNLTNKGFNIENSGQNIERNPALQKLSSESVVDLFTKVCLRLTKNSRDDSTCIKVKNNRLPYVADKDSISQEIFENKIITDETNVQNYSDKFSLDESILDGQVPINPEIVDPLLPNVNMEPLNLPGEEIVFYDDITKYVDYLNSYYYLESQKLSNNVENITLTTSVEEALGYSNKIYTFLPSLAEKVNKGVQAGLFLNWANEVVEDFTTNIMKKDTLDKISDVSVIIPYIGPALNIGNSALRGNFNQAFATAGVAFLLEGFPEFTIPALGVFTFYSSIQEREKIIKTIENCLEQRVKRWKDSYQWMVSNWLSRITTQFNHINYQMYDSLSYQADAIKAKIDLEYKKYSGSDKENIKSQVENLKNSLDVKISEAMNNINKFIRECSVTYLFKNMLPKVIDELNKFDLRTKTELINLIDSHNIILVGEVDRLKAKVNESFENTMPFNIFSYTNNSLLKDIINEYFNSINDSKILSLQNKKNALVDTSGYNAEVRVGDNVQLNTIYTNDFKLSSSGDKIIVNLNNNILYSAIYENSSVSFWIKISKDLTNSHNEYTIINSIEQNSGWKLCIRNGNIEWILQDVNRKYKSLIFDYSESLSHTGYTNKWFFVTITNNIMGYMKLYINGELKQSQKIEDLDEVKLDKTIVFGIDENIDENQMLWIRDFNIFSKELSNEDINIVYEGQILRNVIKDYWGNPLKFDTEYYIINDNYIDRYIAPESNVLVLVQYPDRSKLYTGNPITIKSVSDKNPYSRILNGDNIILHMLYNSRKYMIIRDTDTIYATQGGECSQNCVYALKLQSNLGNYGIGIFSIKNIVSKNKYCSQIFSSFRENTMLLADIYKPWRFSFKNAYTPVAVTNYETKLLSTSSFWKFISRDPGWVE
# B1: 30C8 scFv (scFv, V domains shown)
# VH: EVQLKQSGTELVKPRSSVKMSCKASGYTFTDYWIGWTKQRPGHGLEWIGHIYPGGGYTNYNEKFKGKATLTADISSSAAYMQFSSPTSEDSAIYYCARIIMVESGDWYFDVWGTGTTLTVSS
# VL: DIVLTQSPAIMSASLGEEITLTCSASSSVSYMHWYQQKSGTSPKLLIYSTSNLASGVPSRFSGSGSGTSYSLTISNMEAEDAATYYCQQWSSNPYTFGGGTKLELK
# B2: 28H4 scFv (scFv, V domains shown)
# VH: EVQLQQSGAELAKPGASVKLSCKASGYTFTSYWMHWVKQGPGQGLEWIGAIYPGNSDTGYNQKFKGKAKLTAVTSASTAYMELSSLTNEDSAVYYCTRHGYYIYALDYWGQGTSVTVSS
# VL: DIVLTQSPAIMSASPGEKVTMTCSASSSVSYMYWYQQKPGSSPKPWIYRTSNLASGVPVRFSGSGSGTSYSLTISSMEAEDAATYYCQQYHNFPPTFGGGTKLEIK
# B3: 29B8 scFv (scFv, V domains shown)
# VH: EVQLQQSGAELVKPGASVKLSCTASGFNIKDYYMHWVKQRTEQGLEWIGRIDPEDGETKYAPKFQGKATITADTSSNTAYLQLSSLTSEDTAVYYCVSLLRSRTGYFDYWGQGTTLTVSS
# VL: ENVLTQSPAIMSASPGEKVTMTCSASSSVSYMHWYQQKSGTSPKRWIYDTSNLAPGVPARFSGSGSGTSYSLTISSMEAEDAASYFCHQWSSYPYTFGGGTKLEIK
# B4: 4C8 scFv (scFv, V domains shown)
# VH: QVQLVESGGGLVQPGRSLRLSCAASGLTLSNYWMNWVRQAPGKGLEWVANIHQDGVEKYYVDSVKGRFTISRDNAKNSLYLQMSSLRAEDTAVYYCARGGKYSNSSAMYQWGQGTLVTVSS
# VL: DIVMTQSPSSLAASVGDRVTITCRASQSISGYLNWYQQKPGKAPNLLIYAASSLQSGVPSRFSGSGSGTDFTLTISSLQPDDFASYYCQQSYDIPRTFGQGTKVEIK
# notes: human
# B5: 8DC2 scFv (scFv, V domains shown)
# VH: QVQLVQSGAEVKKPGSSVKVSCKTSGGTFRNFAISWVRQAPGQGLEWMGGIIPMFGKGHYAQNFQGRVTITADDSTTTAYMELSSLRYEDTAVYYCARGTRNGSLRDAFDIWGQGTTVTVSS
# VL: ASVLTQDPSASGSPGQSVTISCTGTSSDVGGYNYVSWYQQHPGKAPKLMIYDVSNRPSEVPDRFSGSKSGNTASLTVSGLQAEDEADYYCSSYAGSNKRVFGGGTKLTVL
# notes: human
# B6: 4C5 scFv (scFv, V domains shown)
# VH: QVQLVQSGADVKKPGASVRVSCKASGYTISTYAMSWVRQAPGQGLEWMGWISGYNGNTNYAQEFQGRVTMTRDTSTNTAYMELRSLRSDDTAFYYCARVKLTTMVRGGPFDYWGQGTLVTVSS
# VL: EIVLTQSPSSLSATVGDRVTITCRASQGIRNDLVWYQQKPGKAPKRLTYAASSLLSGVPSRFSGSGSGTDFTLTISSLQPEDFATYYCQQYNSYPPTFGGGTKLEIK
# notes: human
# B7: 8DC3 scFv (scFv, V domains shown)
# VH: QVQLVQSGGGLVKPGGSLRLSCAASGFTFSSHSMNWVRQAPGKGLEWVSSISSSSSYIYYADSVKGRFTISRDNSKNSLYLQLNSLRAEDTAVYYCARGDHDFRSGYYGMDVWGQGTMVTVSS
# VL: AELTQDPAVSVALGQTVRITCQGDSLRNYYASWYQQKPGQAPVLVIYGKNIRPSGIPDRFSGSSSGNTASLTITGAQAEDEADYYCNSRDSNGNHYVFGTGTKVTVL
# notes: human
# B8: 4C9 scFv (scFv, V domains shown)
# VH: QVQLVESGAEVKKPGASVKVSCTASGYTFAGYYMDWVRQAPGQGLEWMGRINPKSGDPNYEQKFQGRVTLTRDKSINTVYMELSRLKSDDTAIYYCARSVSGGAFDLWGRGTLVTVSS
# VL: DIVMTQSPSSLSASVGDRVTITCRASQSINSYLNWYQQKPGKVPRLLIYSASSLQSGVPSRFSGSGSGTDFTLTISSLQPDDFATYYCQQYKRYSSFGQGTKVEIK
# notes: human
# Target: T1, BoNT/F1 (proteolytic BoNT/F)
# Experiment: yeast scFv FACS
row,Binder,Kd [nM]
1,B1,0.2
2,B2,20
3,B3,35.8

# Target: T1, BoNT/F1 (proteolytic BoNT/F)
# Experiment: yeast scFv FACS
# Remark: another data set of the same source
row,Binder,Kd [nM]
1,B1,0.2
2,B2,20
3,B3,35.8

# Target: T2, BoNT/C1 holotoxin
# Experiment: yeast scFv FACS
Binder,Kd [nM],binding result
B4,51.1,
B5,,binds
B6,0.143,
B7,,no binding (tested: ~1 µM)
B8,29.6,

# Target: T3, BoNT/D
# Experiment: yeast scFv FACS
row,Binder,binding result
1,B4,no binding (tested: ~1 µM)
2,B5,no binding (tested: ~1 µM)
3,B6,no binding (tested: ~1 µM)
4,B7,binds
5,B8,no binding (tested: ~1 µM)
